“And” between values parts separate entries of the source, which are not always exact repeats. Equal entries are not always repeated.
Experiments:
[1] = test system: S. haemolyticus B9511 biofilms; assay: MBIC and checkerboard synergy on preformed biofilm (MTT assay); type: cell-based; details: S. haemolyticus B9511 72 h preformed biofilm, 6 hr treatment
Experimental: (§1) […] LB supplemented with 50 μg/mL Ca^++ was used for daptomycin treatment wells. The contents of the well was aspirated out and discarded. The biofilm adhered to the wells was quantified by MTT assay as described above. In each experiment, in addition to the combination MBIC, the MBIC of each drug was also determined individually. The fractional MBIC concentrations were determined by MTT dye method as described above. The FICI and synergy was calculated.

[2] = test system: S. lugdunensis B9510 biofilms; assay: as above; type: cell-based; details: S. lugdunensis B9510 72 h preformed biofilm, 6 hr treatment
Experimental: as §1

[3] = test system: S. aureus MW2 biofilms; assay: Biofilm eradication/biomass removal, crystal violet staining; type: cell-based, Staphylococcus aureus; details: for Activity on preformed biofilm, crystal violet: 500 μg/mL for 24 h, MSSA and MRSA strains
Experimental: Dis. 209:1469-78 was followed. Briefly, S. aureus MW2 strain grown on blood agar plates was inoculated into TSB with 2% glucose and the culture was grown overnight. The culture was diluted 1:50 in TSB to achieve an […] of the diluted culture was added to 1.8 mL of TSB media aliquoted into each well of a 24 well plate (˜5×10^5 CFU). The plates were kept at 37° C. under static conditions for 18 h, the contents were aspirated, the wells were washed twice with 2.0 mLmL of 1×PBS, and 1 mLmL of media+1 mLmL of the drug was added to each well and incubated at 37° C. for 0, 2, 4 and 24 h. The contents were aspirated out at the stipulated time points and the wells were washed with 2 mL of 1×PBS. The wells were allowed to dry at 37° C. for 15 min and stained with 1 mLmL of 1% CV for 5 min. The wells were washed with 1 mLmL of 1×PBS, air dried and observed for intensity of blue color.
0.1% CV was used for staining biofilms. Post staining and washing steps, 1 mL 30% acetic acid is added to each well, incubated in RT for 5-10 min, contents in the well are mixed thoroughly and OD was read at 570 nm.

[4] = test system: S. aureus biofilms; assay: MBIC and checkerboard synergy on preformed biofilm (MTT assay); type: cell-based, Staphylococcus aureus; details: for MIC (drug alone) on biofilm: S. aureus MW2 72 h preformed biofilm, 6 hr treatment; for Activity on biofilms: S. aureus MW2 biofilm, drug alone
Experimental: […] LB supplemented with 50 μg/mL CaCl2 was used for daptomycin treatment wells. The contents of the well was aspirated out and discarded. The biofilm adhered to the wells was quantified by MTT assay as described above. The MBIC was defined as the minimum concentration of P128 or the drug showing no colour development. […] In each experiment, in addition to the combination MBIC, the MBIC of each drug was also determined individually. The fractional MBIC concentrations were determined by MTT dye method as described above. The FICI and synergy was also calculated in a similar manner.
The ability of P128 to inhibit growth of S. aureus in a preformed biofilm was measured by determining minimum biofilm inhibition concentration (MBIC), defined as minimum concentration showing growth inhibition in a MTT based assay. […] 11:226.
The assay was optimized using the standard S. aureus strain ATCC 29213. An overnight-grown culture of the strain was diluted 1:40 in LB broth 200 μL of diluted culture was aliquoted into microtiter plate wells. Microplates were placed in a shaker-incubator set to 37° C., and 100 rpm for 24 h followed by 48 h incubation under static conditions at 37° C. The contents of one set of four wells were aspirated and discarded. Wells were washed twice with 1×PBS and the presence of biofilm in the wells at the end of this 72-hour period was determined by metabolic dye-reduction assay method using MTT (3-(4, 5-dimethylthiazol-5-diphenyltetrazolium bromide; Himedia). In this assay, live cells reduce the dye leading to color formation which can be read at 570 nm, and the intensity of color can be correlated to number of live cells. 100 μL of PBS was added to the wells along with 10 μL of MTT solution. The plate was incubated for 2 h in the dark. After this, 110 μL of solvent solution solubilizing agent was added and the plate was incubated for 15 minutes at ambient temperature with gentle agitation. The absorbance was read at 570 nm in a microplate reader. Another set of four wells was processed for harvesting the biofilm and determination of CFUs present by plating on solid media. For biofilm inhibitory studies, the wells were washed twice with 1×PBS and challenged with various concentrations of P128 or other antibiotic drugs and incubated for 24 h at 37° C. The contents of the well was aspirated out and discarded. The biofilm adhered to the wells was quantified by MTT assay as described above. The MBIC was defined as the minimum concentration of P128 or the drug showing no colour development. […] In each experiment, in addition to the combination MBIC, the MBIC of each drug was also determined individually. The fractional MBIC concentrations were determined by MTT dye method as described above. The FICI and synergy was also calculated in a similar manner.
In order to determine whether P128 could synergize with known anti-Staphylococcus drugs to inhibit S. aureus in biofilms. […] The assays were performed in a 96 well checkerboard format using various concentrations of P128 and one of the antibiotics.

[5] = test system: S. aureus biofilm; assay: Bactericidal activity on biofilm (CFU reduction); type: cell-based, Staphylococcus aureus; details: for Reduction in CFU counts: S. aureus MW2 biofilm on catheters, P128 8 μg/mL, daptomycin 10 μg/mL, vancomycin 15 μg/mL
Experimental: In order to determine whether P128 could also act as a bactericidal agent in biofilms, the CFU reduction were monitored in S. aureus ATCC 29213 72 h preformed biofilms treated with various concentrations of P128 for 6 h. For CFU enumeration in catheter biofilm, the catheters were removed from the tubes, rinsed twice in PBS and placed in eppendorf tubes containing 1 mL PBS. To release the adhered biofilm into PBS, the catheters were scraped using inoculation loop. The samples were vortexed thoroughly and plated on LB agar plates.

[6] = Table 4, S. aureus ATCC 29213 preformed biofilm, 6 h
[7] = Table 4, S. aureus ATCC 29213 preformed biofilm, 24 h
[8] = Table 4, S. aureus B9241 preformed biofilm, 6 h
[9] = Table 4, S. aureus B9241 preformed biofilm, 24 h
[10] = Table 4, S. aureus BK1 preformed biofilm, 6 h
[11] = Table 4, S. aureus BK1 preformed biofilm, 24 h

For `CC(=O)NC[C@H]1CN(c2ccc(N3CCOCC3)c(F)c2)C(=O)O1` [Linezolid, linezolid], the “MBIC (drug alone)” value [1] was greater than 250 µg/mL, the “MBIC (drug alone)” value [2] was 125 µg/mL and the “Activity on preformed biofilm, crystal violet” value (from here on “Activity on preformed biofilm”) [3] was “insignificant activity”. For the same molecule, the “MIC (drug alone) on biofilm” value [4] was greater than 500 µg/mL and the “Activity on biofilms” value [4] was “poorly effective”.

`CN[C@H](CC(C)C)C(=O)N[C@H]1C(=O)N[C@@H](CC(N)=O)C(=O)N[C@H]2C(=O)N[C@H]3C(=O)N[C@H](C(=O)N[C@H](C(=O)O)c4cc(O)cc(O)c4-c4cc3ccc4O)[C@H](O)c3ccc(c(Cl)c3)Oc3cc2cc(c3O[C@@H]2O[C@H](CO)[C@@H](O)[C@H](O)[C@H]2O[C@H]2C[C@](C)(N)[C@H](O)[C@H](C)O2)Oc2ccc(cc2Cl)[C@H]1O` [Vancomycin, vancomycin] was tested, and the “Reduction in CFU counts” value [5] was “no significant effect”, the “MBIC (drug alone)” value [1] was greater than 250 µg/mL and the “MBIC (drug alone)” value [2] was 250 µg/mL. For the same molecule, the “Activity on preformed biofilm” value [3] was “insignificant activity”, the “MIC (drug alone) on biofilm” value [4] was 250 µg/mL and the “Activity on biofilms” value [4] was “poorly effective”. For the same molecule, the “MBIC (individual)” value [4, 6] was 7.8 µg/mL, the “MBIC (individual)” value [4, 7] was 218.75 µg/mL and the “MBIC (individual)” value [4, 8] was 31.25 µg/mL. For the same molecule, the “MBIC (individual)” value [4, 9] was 125 µg/mL, the “MBIC (individual)” value [4, 10] was 31.25 µg/mL and the “MBIC (individual)” value [4, 11] was 250 µg/mL.

With `CCCCCCCCCC(=O)N[C@@H](Cc1c[nH]c2ccccc12)C(=O)N[C@H](CC(N)=O)C(=O)N[C@@H](CC(=O)O)C(=O)N[C@@H]1C(=O)NCC(=O)N[C@@H](CCCN)C(=O)N[C@@H](CC(=O)O)C(=O)N[C@H](C)C(=O)N[C@@H](CC(=O)O)C(=O)NCC(=O)N[C@H](CO)C(=O)N[C@@H]([C@H](C)CC(=O)O)C(=O)N[C@@H](CC(=O)c2ccccc2N)C(=O)O[C@@H]1C` [Daptomycin, daptomycin] the “Reduction in CFU counts” value [5] was 1 log, the “MBIC (drug alone)” value [1] was greater than 250 µg/mL and the “MBIC (drug alone)” value [2] was 15.6 µg/mL. For the same molecule, the “Activity on preformed biofilm” value [3] was “insignificant activity”, the “MIC (drug alone) on biofilm” value [4] was 31.2 µg/mL and the “Activity on biofilms” value [4] was “relatively better activity”.

B1: P128: anti-staphylococcal chimeric protein: phage tail associated muralytic enzyme (TAME) cell wall-degrading region plus staphylococcus-specific binding region; SEQ ID NO: 1 (protein)
chain: MSLDSLKKYNGKLPKHDPSFVQPGNRHYKYQCTWYAYNRRGQLGIPVPLWGDAADWIGGAKGAGYGVGRTPKQGACVIWQRGVQGGSPQYGHVAFVEKVLDGGKKIFISEHNYATPNGYGTRTIDMSSAIGKNAQFIYDKKLETPNTGWKTNKYGTLYKSESASFTPNTDIITRTTGPFRSMPQSGVLKAGQTIHYDEVMKQDGHVWVGYTGNSGQRIYLPVRTWNKSTNTLGVLWGTIK
modifications: P128 chimera
For B1, the Cells killed ([5]; S. aureus ATCC 29213 72 h biofilm, P128 7.8 μg/mL, 6 h) was greater than 90%, the Cell killing ([5]; S. aureus ATCC 29213 72 h biofilm, P128 greater than 31 μg/mL, 6 h) was 99.9% and the “Reduction in CFU counts” value [5] was 3 log. The “MBIC (drug alone)” value [1] was 6.25 µg/mL and 12.5 µg/mL, the “MBIC (drug alone)” value [2] was 32 µg/mL and 16 µg/mL and the “Time of treatment to eliminate the biofilms” value ([3]; P128 at 1×MIC (8 μg/mL)) was no more than 2 h. The “OD570 of crystal violet vs cell control” value ([3]; even after 24 h) was “significant drop in OD”, the “MBIC fold higher than planktonic MIC” value ([4]; 2 h assay, sensitive and resistant strains of S. aureus) was 1-4 fold and the MBIC ([4]; S. aureus 8325-4 biofilm, 2 h) was 7.8 µg/mL. The MBIC ([4]; S. aureus 8325-4 biofilm, 4 h) was 15.6 µg/mL, the MBIC ([4]; S. aureus 8325-4 biofilm, 6 h) was 15.6 µg/mL and the MBIC ([4]; S. aureus 8325-4 biofilm, 8 h) was 31.25 µg/mL. The MBIC ([4]; S. aureus 8325-4 biofilm, 24 h) was 1000 µg/mL, the MBIC ([4]; S. aureus ATCC 29213 biofilm, 2 h) was 3.9 µg/mL and the MBIC ([4]; S. aureus ATCC 29213 biofilm, 4 h) was 15.6 µg/mL. For the same molecule, the MBIC ([4]; S. aureus ATCC 29213 biofilm, 6 h) was 15.6 µg/mL, the MBIC ([4]; S. aureus ATCC 29213 biofilm, 8 h) was 15.6 µg/mL and the MBIC ([4]; S. aureus ATCC 29213 biofilm, 24 h) was 250 µg/mL. It also gave an MBIC ([4]; S. aureus B9241 biofilm, 2 h) of 15.6 µg/mL, an MBIC ([4]; S. aureus B9241 biofilm, 4 h) of 125 µg/mL and an MBIC ([4]; S. aureus B9241 biofilm, 6 h) of 125 µg/mL. For the same molecule, the MBIC ([4]; S. aureus B9241 biofilm, 8 h) was 125 µg/mL, the MBIC ([4]; S. aureus B9241 biofilm, 24 h) was greater than 1000 µg/mL and the MBIC ([4]; S. aureus B9356 biofilm, 2 h) was 7.8 µg/mL. It also gave an MBIC ([4]; S. aureus B9356 biofilm, 4 h) of 15.6 µg/mL, an MBIC ([4]; S. aureus B9356 biofilm, 6 h) of 31.25 µg/mL and an MBIC ([4]; S. aureus B9356 biofilm, 8 h) of 62 µg/mL. The MBIC ([4]; S. aureus B9356 biofilm, 24 h) was greater than 1000 µg/mL, the MBIC ([4]; S. aureus BK1 biofilm, 2 h) was 15.6 µg/mL and the MBIC ([4]; S. aureus BK1 biofilm, 4 h) was 31.25 µg/mL. The MBIC ([4]; S. aureus BK1 biofilm, 6 h) was 31.25 µg/mL, the MBIC ([4]; S. aureus BK1 biofilm, 8 h) was 31.25 µg/mL and the MBIC ([4]; S. aureus BK1 biofilm, 24 h) was 1000 µg/mL. For the same molecule, the “MIC (drug alone) on biofilm” value [4] was 6.25 µg/mL, the “MBIC (individual)” value [4, 6] was 6.04 µg/mL and the “MBIC (individual)” value [4, 7] was 200 µg/mL. For the same molecule, the “MBIC (individual)” value [4, 8] was 105.15 µg/mL, the “MBIC (individual)” value [4, 9] was greater than 1000 µg/mL and the “MBIC (individual)” value [4, 10] was 28.95 µg/mL. For the same molecule, the “MBIC (individual)” value [4, 11] was 400 µg/mL.

Source: US20190282673A1, “STAPHTAME ACTIVITY ON BIOFILMS” (priority 2016, published 2019)
